Measured values taken from publication doi:10.1101/2024.06.24.600433, “Role of the antiparallel double-stranded filament form of FtsA in activating the Escherichia coli divisome” (bioRxiv, 2024).

B1: FtsA^M71A with Q155C (natural protein, E. coli, UniProt P0ABH0 1-420, looked up)
chain: MIKATDRKLVVGLEIGTAKVAALVGEVLPDGMVNIIGVGSCPSRGMDKGGVNDLESVVKCVQRAIDQAELAADCQISSVYLALSGKHISCQNEIGMVPISEEEVTQEDVENVVHTAKSVRVRDEHRVLHVIPQEYAIDYQEGIKNPVGLSGVRMCAKVHLITCHNDMAKNIVKAVERCGLKVDQLIFAGLASSYSVLTEDERELGVCVVDIGGGTMDIAVYTGGALRHTKVIPYAGNVVTSDIAYAFGTPPSDAEAIKVRHGCALGSIVGKDESVEVPSVGGRPPRSLQRQTLAEVIEPRYTELLNLVNEEILQLQEKLRQQGVKHHLAAGIVLTGGAAQIEGLAACAQRVFHTQVRIGAPLNITGLTDYAQEPYYSTAVGLLHYGKESHLNGEAEVEKRVTASVGSWIKRLNSWLRKEF
notes: FtsA of E. coli with M71A and Q155C; M71A introduced into pWM7049 or pWM7239 by site-directed mutagenesis; I take them to be the Q155C and the R286W Q155C derivatives of pDSW210-FLAG-FtsA; source: E. coli, expressed from a plasmid, in cells (crosslinked in vivo)
B2: FLAG-FtsA^Q155C (natural protein, E. coli, UniProt P0ABH0 1-420, looked up)
chain: MIKATDRKLVVGLEIGTAKVAALVGEVLPDGMVNIIGVGSCPSRGMDKGGVNDLESVVKCVQRAIDQAELMADCQISSVYLALSGKHISCQNEIGMVPISEEEVTQEDVENVVHTAKSVRVRDEHRVLHVIPQEYAIDYQEGIKNPVGLSGVRMCAKVHLITCHNDMAKNIVKAVERCGLKVDQLIFAGLASSYSVLTEDERELGVCVVDIGGGTMDIAVYTGGALRHTKVIPYAGNVVTSDIAYAFGTPPSDAEAIKVRHGCALGSIVGKDESVEVPSVGGRPPRSLQRQTLAEVIEPRYTELLNLVNEEILQLQEKLRQQGVKHHLAAGIVLTGGAAQIEGLAACAQRVFHTQVRIGAPLNITGLTDYAQEPYYSTAVGLLHYGKESHLNGEAEVEKRVTASVGSWIKRLNSWLRKEF
notes: FtsA of E. coli with Q155C, made by site-directed mutagenesis on pWM2785 (pDSW210-FLAG-FtsA); probably the whole FtsA reading frame, since it complements an ftsA null allele; also called pDSW210-FLAG-FtsA^Q155C; source: E. coli, expressed from pDSW210 with IPTG, in cells (crosslinked in vivo); not shown: FLAG, N-terminal, kept

How the values were obtained:
[1] = biological target: the molecule itself; assay: cross-linking; in vivo cysteine crosslinking of E. coli cells in cold PBS with 0.5 mM BMB or BMH for 10 min, quenched with 40 mM BME; SDS-PAGE and anti-FtsA immunoblot; dividing cells (ftsZ84(ts) 10 and 20 min after return to 30°C; ftsQ1ts, zipA1ts and ftsA^o strains at 30°C, ftsA^o strain also at 42°C; WM4952 at 37°C; WM4953 ftsL*)
[2] = biological target: the molecule itself; assay: cross-linking; in vivo cysteine crosslinking, ftsQ1(ts) strain WM7148 shifted to the nonpermissive 42°C; anti-FtsA immunoblot
[3] = biological target: the molecule itself; assay: cross-linking; in vivo cysteine crosslinking, zipA1(ts) strain WM7149 shifted to the nonpermissive 42°C; anti-FtsA immunoblot

| Protein | DS filament crosslinking at Q155C relative to WT FtsA [1] | fold decrease of the crosslinked band at 42°C against 30°C [2] [fold] | fold decrease of the crosslinked band at 42°C against 30°C [3] [fold] |
| --- | --- | --- | --- |
| B1 | ~35 % of WT levels |  |  |
| B2 |  | 3 | 7.5 |
